Assay [1] concerns H322 human NSCLC cells. In words: In vivo tumor inhibition assay, NSCLC xenograft model H322. Further details: species or system nude mice. The settings on record: for Growth: Day 0 to 31. On the procedure:
Five million H322 human NSCLC cells in Matrigel were inoculated subcutaneously into nude mice. Anti-IGFR antibody 19D12 and/or paclitaxel treatment was initiated when the tumor size reached ˜105-115 mm^3 at day 0. Both 19D12 and paclitaxel were dosed twice per week. Anti-IGFR antibody 19D12 was dosed at 0.5 mg per mouse. Paclitaxel was at 15 mpk. Ten animals per group. Tumor volumes were measured by Labcat.

The subject of assay [2] is H322 NSCLC cells. In words: Proliferation assay (Cell Titer-Glo) with anti-IGFR1 antibody and a chemotherapeutic agent, H322 NSCLC cells. The class given is cell-based, human. The settings on record: H322, Day4, replicates. The method, then: The ability of cells in culture to proliferate when exposed to varying concentrations of the 19D12/15H12 wild-type or 19D12/15H12 LCF/HCA anti-IGFR1 antibody and either paclitaxel, gefitinib, lonafarnib 4-hydroxy tamoxifen or doxorubicin was evaluated in this example.
Cell Preparation. […] The cells were trypsinized, counted and resuspended at a concentration of 25000 cells/ml in 10% HI-FBS (heat-inactivated fetal bovine serum) RPMI medium containing NEAA (non-essential amino acids), L-Glu, MEM Vitamins and PS. 100 ul of cell suspension (2500 cells) was added to each well of a BD Falcon 96 well black, clear bottom TC treated plate. The cells were allowed to attach and spread overnight at 37° C. The 10% RPMI solution was replaced with 100 μl RPMI containing 2% HI-FBS containing NEAA, L-Glu, MEM Vitamins and PS.
Solution Preparation. All assay reagents were prepared in RPMI containing 2% HI-FBS at 20× concentration and serial diluted for a total of 10 test concentrations per treatment. Every test point was prepared in triplicate on separate assay plates.
Reagent 1 and 19D12/15H12 or 19D12/15H12 LCF/HCA were set up individually as dose responses as well as in combination with each other. Cell proliferation was measured on Day4.
Assay. Cell proliferation was measured using the Promega Cell Titer-Glo Luminescent Cell Viability Assay (Promega Corp.; Madison, Wis.). This assay provided a method for determining the number of viable cells in culture based on quantitation of ATP in the culture, which indicates the presence of metabolically active cells.
The assay reagents and assay plates were equilibrated to room temperature and prepared immediately before addition to the assay plates. One volume of assay reagent was added to each well of the assay plate and shaken on an orbital platform for at least ten minutes to allow for equilibration of the ATP reaction and to ensure total lysis of all cells in the assay plate. […] Luminescence was detected on Wallac 420 Plate Reader with stacker.
The units in the tables (proliferation index) are arbitrary and are proportional to the number of viable cells observed in the culture under each respective condition.
In Tables 2-6, “ug” indicates micrograms and “uM” indicates micromolar.
A general note: Cellular ATP, detected with luciferase, serves as a proxy for viable cell number.

The mark [3] stands for this setting: Day 0 (treatment start), H322 xenograft in nude mice.
Where [4] appears, read: 19D12 0.5 mg per mouse and/or Taxol 15 mpk, twice per week.
Where [5] appears, read: Day 31, 19D12 0.5 mg per mouse and/or Taxol 15 mpk, twice per week.

These results are taken from US8017735B2, “Anti-IGFR1 antibody therapeutic combinations” (Schering Corporation, priority 2003, dated 2011).

Several values for one entry are separate records, joined by “and”; a condition that tells them apart may be missing. Equal values may be shown once.

Consider `CC(=O)O[C@H]1C(=O)[C@@]2(C)[C@H]([C@H](OC(=O)c3ccccc3)[C@]3(O)C[C@H](OC(=O)[C@H](O)[C@@H](NC(=O)c4ccccc4)c4ccccc4)C(C)=C1C3(C)C)[C@]1(OC(C)=O)CO[C@@H]1C[C@@H]2O` [Taxol, paclitaxel], for which the tumor volume in assay [1] (setting [3]) came out at 109.54 mm3; in assay [1] (setting [5]), 214.25 mm3. Further, in assay [1] (setting [4]), the Growth stood at 104.71. The “% inhibition (tumor growth inhibition)” value in assay [1] (setting [5]) is given as 52%. In addition, the proliferation index is 72498 and 78070 and 89290 and 71662 and 72122 and 77618 and 81720 and 80172 and 76744 in assay [2] (Taxol alone 0.00256 ng/mL); 75374 and 83082 and 74926 and 73584 and 75710 and 75356 and 87602 and 75690 and 76350 in assay [2] (Taxol alone 0.064 ng/mL); 38354 and 33654 and 34598 and 31556 and 36038 and 35906 and 34498 and 53256 and 41418 in assay [2] (Taxol alone 8 ng/mL); 22160 and 25204 and 22624 and 22020 and 22956 and 24152 and 23908 and 24834 and 22462 in assay [2] (Taxol alone 40 ng/mL); 19372 and 23650 and 23668 and 23164 and 23482 and 24314 and 25752 and 23960 and 21420 in assay [2] (Taxol alone 200 ng/mL); 20932 and 26882 and 24582 and 23884 and 23712 and 25890 and 24522 and 24842 and 20306 in assay [2] (Taxol alone 1000 ng/mL).

B1: 19D12/15H12 LCF/HCA: monoclonal, fully-human anti-IGFR1 antibody: mature light chain F (SEQ ID NO: 2) paired with mature heavy chain A (SEQ ID NO: 4) (antibody, listed as Homo sapiens, V domains shown)
VH: MEFGLSWVFLVAILKGVQCEVQLVQSGGGLVKPGGSLRLSCAASGFTFSSFAMHWVRQAPGKGLEWISVIDTRGATYYADSVKGRFTISRDNAKNSLYLQMNSLRAEDTAVYYCARLGNFYYGMDVWGQGTTVTVSS
VL: MSPSQLIGFLLLWVPASRGEIVLTQSPGTLSVSPGERATLSCRASQSIGSSLHWYQQKPGQAPRLLIKYASQSLSGIPDRFSGSGSGTDFTLTISRLEPEDFAVYYCHQSSRLPHTFGQGTKVEIKRT
As for B1, the proliferation index in assay [2] (antibody alone 0.000256 nM (Table 2 plates)) is 73420 and 74154 and 83338 and 74108 and 84234 and 83206 and 80894 and 82674 and 71784; in assay [2] (antibody alone 0.0064 nM (Table 2 plates)) it was 61654 and 79014 and 72998 and 69060 and 64818 and 74862 and 76374 and 68206 and 70226; in assay [2] (antibody alone 0.8 nM (Table 2 plates)) it was 40944 and 47470 and 52010 and 49636 and 55228 and 53706 and 56984 and 49396 and 47080; in assay [2] (antibody alone 0.8 nM (Table 3 plates)) it was 49206; in assay [2] (antibody alone 4 nM (Table 2 plates)) it was 42312 and 48884 and 49992 and 50508 and 47256 and 56998 and 54966 and 51438 and 44700; in assay [2] (antibody alone 20 nM (Table 2 plates)), 44120 and 55106 and 50680 and 49038 and 56114 and 52446 and 51826 and 52490 and 48302. Besides, the proliferation index is 51960 and 58598 and 48444 and 49156 and 51020 and 48730 and 49684 and 45064 and 52120 in assay [2] (antibody alone 20 nM (Table 3 plates)); 74408 and 87030 and 83636 and 79810 and 79650 and 90294 and 88940 and 86762 and 74996 in assay [2] (antibody alone 5.12E−05 nM (Table 2 plates)).

B2: 19D12: Anti-IGFR antibody 19D12 (antibody, listed as Homo sapiens, V domains shown)
VL: B1 VL
VH: B1 VH
For the molecule B2, the tumor volume in assay [1] (setting [3]) turned out to be 106.57 mm3. The molecule also had a Growth in assay [1] (setting [4]) of 66.45. In assay [1] (setting [5]), the “% inhibition (tumor growth inhibition)” value is 75.50% and the tumor volume is on record as 173.02 mm3.
